According to patent US20250381284A1 (Eli Lilly, published 2025):
Blank lines part the entries; values can stand above or below the binder they belong to.

Target: T1, human TfR ECD (human, UniProt P02786 89-760)
T1 construct: extracellular domain; also called Human Transferrin Receptor 1 extracellular domain
Assay: SPR (Biacore 8K), human TfR ECD amine-coupled on CM3 chip, 25 C, 2-state model
Description: Target human TfR ECDs were immobilized on a CM3 chip (Cytiva P/N BR100536) using standard NHS-EDC amine coupling. The TfR binding proteins were prepared at a final concentration of 1.8, 0.6, 0.2, 0.067, 0.022, 0.0074, 0.0025 μM respectively by dilution of stock solution into running buffer.
Binding analysis was performed in a single-cycle or multi-cycle kinetics manner. Each analysis cycle consisted of (1) injection of the lowest to highest concentration proteins over all flow channel at 50 μL/min for 200 seconds followed by return to buffer flow for 900 seconds to monitor dissociation phase; (2) regeneration of chip surfaces with injection of 3M magnesium chloride, for 30 seconds at […] over all cells; and (3) equilibration of chip surfaces with a 50 μL (30-sec) injection of HBS-EP+. Data were processed using standard double-referencing and fit to a 2-state binding model using Biacore 8K Evaluation software, to determine the association rate (kₒₙ, M⁻¹s⁻¹ units), dissociation rate (koff, s⁻¹ units), and Rₘₐₓ (RU units). The equilibrium dissociation constant (KD) is calculated from the relationship KD=koff/kₒₙ, and is in molar units.

Kd: 12.4 nM
B1: TBP5 (Fab1-One Arm Heteromab 2, S124C) (antibody, human IgG4 S228P, kappa, F234A L235A)
heavy 1: EVQLVESGGGLVKPGGSLRLSCVASGFTFSSYSMNWVRQAPGKGLEWVSSISSSSSYIYYADSVKGRFTISRDNAKNSLYLQMNSLRAEDTAVYYCARRHGYSNSDAFDNWGQGTLVTVSSASTKGPCVFPLAPCSRSTSESTAALGCLVKDYFPEPVTVSWNSGALTSGVHTFPAVLQSSGLYSLSSVVTVPSSSLGTKTYTCNVDHKPSNTKVDKRVESKYGPPCPPCPAPEAAGGPSVFLFPPKPKDTLMISRTPEVTCVVVDVSQEDPEVQFNWYVDGVEVHNAKTKPREEQFNSTYRVVSVLTVLHQDWLNGKEYKCKVSNKGLPSSIEKTISKAKGQPREPQVSTLPPSQEEMTKNQVSLMCLVYGFYPSDIAVEWESNGQPENNYKTTPPVLDSDGSFFLYSVLTVDKSRWQEGNVFSCSVMHEALHNHYTQKSLSLSLG
light: DIQMTQSPSAMSASVGDRVTITCRASQGISHYLVWFQQKPGKVPKRLIYAASSLQSGVPSRFSGSGSGTEFTLTISSLQPEDFATYYCLQHNSYPWTFGQGTKVEIKRTVAAPSVFIFPPSDEQLKSGTASVVCLLNNFYPREAKVQWKVDNALQSGNSQESVTEQDSKDSTYSLSSTLTLSKADYEKHKVYACEVTHQGLSSPVTKSFNRGEC
heavy 2: ESKYGPPCPPCPAPEAAGGPSVFLFPPKPKDTLMISRTPEVTCVVVDVSQEDPEVQFNWYVDGVEVHNAKTKPREEQFNSTYRVVSVLTVLHQDWLNGKEYKCKVSNKGLPSSIEKTISKAKGQPREPQVYTLPPSQGDMTKNQVQLTCLVKGFYPSDIAVEWESNGQPENNYKTTPPVLDSDGSFFLASRLTVDKSRWQEGNVFSCSVMHEALHNHYTQKSLSLSLG
notes: One-arm heteromab, hIgG4 PAA, tested as the unconjugated protein; also called OAH2

Kd: 18.6 nM | koff: 0.00671 s⁻¹ | kon: 361000 M⁻¹ s⁻¹
B2: TBP8 (Fab2-VHH) (Fab)
heavy: EVQLVESGGGLVKPGGSLRLSCVASGFTFSSYSMNWVRQAPGKGLEWVSSISSSSSYIYYADSVKGRFTISRDNAKNSLYLQMNSLRAEDTAVYYCARRHGYSNSDAFDTWGQGTLVTVSSASTKGPCVFPLAPSSKSTSGGTAALGCLVKDYFPEPVTVSWNSGALTSGVHTFPAVLQSSGLYSLSSVVTVPSSSLGTQTYICNVNHKPSNTKVDKRVGGGGQGGGGQGGGGQGGGGQGGGGQEVQLLESGGGLVQPGGSLRLSCAASGRYIDETAVAWFRQAPGKGREFVAGIGGGVDITYYADSVKGRFTISRDNSKNTLYLQMNSLRPEDTAVYYCGARPGRPLITSKVADLYPYWGQGTLVTVSSPP
light: DIQMTQSPSAMSASVGDRVTITCRASQGISHYLVWFQQKPGKVPKRLIYAASSLQSGVPSRFSGSGSGTEFTLTISSLQPEDFATYYCLQHNSYPWTFGQGTKVEIKRTVAAPSVFIFPPSDEQLKSGTASVVCLLNNFYPREAKVQWKVDNALQSGNSQESVTEQDSKDSTYSLSSTLTLSKADYEKHKVYACEVTHQGLSSPVTKSFNRGE
